Assays:
[1] = target: T1, six-transmembrane epithelial antigen of the prostate-1 (STEAP-1) (UniProt Q9UHE8 1-339, limits assumed); experiment: cell-based or functional assay
[2] = target: T1, six-transmembrane epithelial antigen of …; experiment: cell-based or functional assay; remark: listed apart in the source

T1 sequence (Q9UHE8 whole entry): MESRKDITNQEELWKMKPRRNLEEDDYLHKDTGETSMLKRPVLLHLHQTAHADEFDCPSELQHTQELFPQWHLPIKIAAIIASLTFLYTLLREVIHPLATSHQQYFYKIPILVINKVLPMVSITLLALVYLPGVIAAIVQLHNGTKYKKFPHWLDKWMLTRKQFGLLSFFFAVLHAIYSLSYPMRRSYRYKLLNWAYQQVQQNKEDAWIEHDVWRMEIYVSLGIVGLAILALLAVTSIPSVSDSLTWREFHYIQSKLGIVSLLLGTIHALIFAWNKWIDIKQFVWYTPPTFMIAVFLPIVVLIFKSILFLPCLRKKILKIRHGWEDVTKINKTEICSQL

Binder | Cell line cytotoxicity EC50 (pM), 22RV1 [1] | Cell line cytotoxicity EC50 (pM), A673 [1] | Cell line cytotoxicity EC50 (pM), IM-95 [1] | Cell line cytotoxicity EC50 (pM), LNCaP [1] | Cell line cytotoxicity EC50 (pM), C4-2B [1] | EC50/pM, LNCaP tumor cell killing [2] | Cell line cytotoxicity EC50 (pM), VCaP [1]
TCE-90 (bispecific antibody) light: not shown heavy 1: EVQLVESGGGLVQPGGSLRLSCAVSGYSITSDYAWNWVRQAPGKGLEWVGYISNSGSTSYNPSLKSRFTISRDTSKNTLYLQMNSLRAEDTAVYYCARERNYDYDDYYYAMDYWGQGTLVTVSSASTKGPSVFPLAPSSKSTSGGTAALGCLVKDYFPEPVTVSWNSGALTSGVHTFPAVLQSSGLYSLSSVVTVPSSSLGTQTYICNVNHKPSNTKVDKKVEPKSCDKTHTCPPCPAPELLGG not shown heavy 2: not shown | 171 pM | 17.3 pM | 11.6 pM | 68.5 pM | – | – | –
TCE-26 (bispecific antibody) light: not shown heavy: EVQLVESGGGLVQPGGSLRLSCAVSGYSITSDYAWNWVRQAPGKGLEWVGYISNSGSTSYNPSLKSRFTISRDTSKNTLYLQMNSLRAEDTAVYYCARERNYDYDDYYYAMDYWGQGTLVTVSSASTKGPSVFPLAPSSKSTSGGTAALGCLVKDYFPEPVTVSWNSGALTSGVHTFPAVLQSSGLYSLSSVVTVPSSSLGTQTYICNVNHKPSNTKVDKKVEPKSC | 2100 pM | 45.8 pM | 147 pM | 585 pM | 1150 pM | 585 pM | –
TCE-80 (bispecific antibody) light: not shown heavy: EVQLVESGGGLVQPGGSLRLSCAVSGYSITSDYAWNWVRQAPGKGLEWVGYISNSGSTSYNPSLKSRFTISRDTSKNTLYLQMNSLRAEDTAVYYCARERNYDYDDYYYAMDYWGQGTLVTVSSASTKGPSVFPLAPSSKSTSGGTAALGCLVKDYFPEPVTVSWNSGALTSGVHTFPAVLQSSGLYSLSSVVTVPSSSLGTQTYICNVNHKPSNTKVDKKVEPKSC | – | – | – | 260 pM | – | 260 pM | –
TCE-89 (bispecific antibody) light: not shown heavy: EVQLVESGGGLVQPGGSLRLSCAVSGYSITSDYAWNWVRQAPGKGLEWVGYISNSGSTSYNPSLKSRFTISRDTSKNTLYLQMNSLRAEDTAVYYCARERNYDYDDYYYAMDYWGQGTLVTVSSASTKGPSVFPLAPSSKSTSGGTAALGCLVKDYFPEPVTVSWNSGALTSGVHTFPAVLQSSGLYSLSSVVTVPSSSLGTQTYICNVNHKPSNTKVDKKVEPKSC | – | – | – | 123 pM | – | 123 pM | –
TCE-79 (bispecific antibody) light: not shown heavy: EVQLVESGGGLVQPGGSLRLSCAVSGYSITSDYAWNWVRQAPGKGLEWVGYISNSGSTSYNPSLKSRFTISRDTSKNTLYLQMNSLRAEDTAVYYCARERNYDYDDYYYAMDYWGQGTLVTVSSASTKGPSVFPLAPSSKSTSGGTAALGCLVKDYFPEPVTVSWNSGALTSGVHTFPAVLQSSGLYSLSSVVTVPSSSLGTQTYICNVNHKPSNTKVDKKVEPKSC | – | – | – | 163 pM | – | 163 pM | –
TCE-84 (bispecific antibody) light: not shown heavy: EVQLVESGGGLVQPGGSLRLSCAVSGYSITSDYAWNWVRQAPGKGLEWVGYISNSGSTSYNPSLKSRFTISRDTSKNTLYLQMNSLRAEDTAVYYCARERNYDYDDYYYAMDYWGQGTLVTVSSASTKGPSVFPLAPSSKSTSGGTAALGCLVKDYFPEPVTVSWNSGALTSGVHTFPAVLQSSGLYSLSSVVTVPSSSLGTQTYICNVNHKPSNTKVDKKVEPKSC | – | – | – | 192 pM | – | 192 pM | –
TCE-87 (bispecific antibody) light: not shown heavy: EVQLVESGGGLVQPGGSLRLSCAVSGYSITSDYAWNWVRQAPGKGLEWVGYISNSGSTSYNPSLKSRFTISRDTSKNTLYLQMNSLRAEDTAVYYCARERNYDYDDYYYAMDYWGQGTLVTVSSASTKGPSVFPLAPSSKSTSGGTAALGCLVKDYFPEPVTVSWNSGALTSGVHTFPAVLQSSGLYSLSSVVTVPSSSLGTQTYICNVNHKPSNTKVDKKVEPKSC | – | – | – | 235 pM | – | 235 pM | –
TCE-86 (bispecific antibody) light: not shown heavy: EVQLVESGGGLVQPGGSLRLSCAVSGYSITSDYAWNWVRQAPGKGLEWVGYISNSGSTSYNPSLKSRFTISRDTSKNTLYLQMNSLRAEDTAVYYCARERNYDYDDYYYAMDYWGQGTLVTVSSASTKGPSVFPLAPSSKSTSGGTAALGCLVKDYFPEPVTVSWNSGALTSGVHTFPAVLQSSGLYSLSSVVTVPSSSLGTQTYICNVNHKPSNTKVDKKVEPKSC | – | – | – | 232 pM | – | 233 pM | –
TCE-83 (bispecific antibody) light: not shown heavy: EVQLVESGGGLVQPGGSLRLSCAVSGYSITSDYAWNWVRQAPGKGLEWVGYISNSGSTSYNPSLKSRFTISRDTSKNTLYLQMNSLRAEDTAVYYCARERNYDYDDYYYAMDYWGQGTLVTVSSASTKGPSVFPLAPSSKSTSGGTAALGCLVKDYFPEPVTVSWNSGALTSGVHTFPAVLQSSGLYSLSSVVTVPSSSLGTQTYICNVNHKPSNTKVDKKVEPKSC | – | – | – | 209 pM | – | 209 pM | –
TCE-85 (bispecific antibody) light: not shown heavy: EVQLVESGGGLVQPGGSLRLSCAVSGYSITSDYAWNWVRQAPGKGLEWVGYISNSGSTSYNPSLKSRFTISRDTSKNTLYLQMNSLRAEDTAVYYCARERNYDYDDYYYAMDYWGQGTLVTVSSASTKGPSVFPLAPSSKSTSGGTAALGCLVKDYFPEPVTVSWNSGALTSGVHTFPAVLQSSGLYSLSSVVTVPSSSLGTQTYICNVNHKPSNTKVDKKVEPKSC | – | – | – | 360 pM | – | 361 pM | –
TCE-81 (bispecific antibody) light: not shown heavy: EVQLVESGGGLVQPGGSLRLSCAVSGYSITSDYAWNWVRQAPGKGLEWVGYISNSGSTSYNPSLKSRFTISRDTSKNTLYLQMNSLRAEDTAVYYCARERNYDYDDYYYAMDYWGQGTLVTVSSASTKGPSVFPLAPSSKSTSGGTAALGCLVKDYFPEPVTVSWNSGALTSGVHTFPAVLQSSGLYSLSSVVTVPSSSLGTQTYICNVNHKPSNTKVDKKVEPKSC | – | – | – | 239 pM | – | 239 pM | –
TCE-88 (bispecific antibody) light: not shown heavy: EVQLVESGGGLVQPGGSLRLSCAVSGYSITSDYAWNWVRQAPGKGLEWVGYISNSGSTSYNPSLKSRFTISRDTSKNTLYLQMNSLRAEDTAVYYCARERNYDYDDYYYAMDYWGQGTLVTVSSASTKGPSVFPLAPSSKSTSGGTAALGCLVKDYFPEPVTVSWNSGALTSGVHTFPAVLQSSGLYSLSSVVTVPSSSLGTQTYICNVNHKPSNTKVDKKVEPKSC | – | – | – | 183 pM | – | 183 pM | –
TCE-82 (bispecific antibody) light: not shown heavy: EVQLVESGGGLVQPGGSLRLSCAVSGYSITSDYAWNWVRQAPGKGLEWVGYISNSGSTSYNPSLKSRFTISRDTSKNTLYLQMNSLRAEDTAVYYCARERNYDYDDYYYAMDYWGQGTLVTVSSASTKGPSVFPLAPSSKSTSGGTAALGCLVKDYFPEPVTVSWNSGALTSGVHTFPAVLQSSGLYSLSSVVTVPSSSLGTQTYICNVNHKPSNTKVDKKVEPKSC | – | – | – | 214 pM | – | 214 pM | –
TCE-93 (bispecific antibody) light: EIVLTQSPATLSLSPGERATLSCRASSSVSYMHWFQQKPGQAPRLLIYSTSNLASGIPARFSGSGSGTDYTLTISSLEPEDFAVYYCQQRRSFPYTFGQGTKLEIKRTVAAPSVFIFPPSDEQLKSGTASVVCLLNNFYPREAKVQWKVDNALQSGNSQESVTEQDSKDSTYSLSSTLTLSKADYEKHKVYACEVTHQGLSSPVTKSFNRGEC heavy 1: QVQLVQSGAEVKKPGASVKVSCKASGYTFSTYWIEWVRQAPGQRLEWMGEILPGSGQTDFNEKFQGRVTFTADTSSDTAYMELSSLRSEDTAVYYCTRWGYYGTRGYFNVWGQGTLVTVSSASTKGPSVFPLAPSSKSTSGGTAALGCLVKDYFPEPVTVSWNSGALTSGVHTFPAVLQSSGLYSLSSVVTVPSSSLGTQTYICNVNHKPSDTKVDKKVEPKSCDKTHTCPPCPAPPVAGPSVFLFPPKPKDTLMISRTPEVTCVVVDVKHEDPEVKFNWYVDGVEVHNAKTKPCEEEYGSTYRCVSVLTVLHQDWLNGKEYKCKVSNKALPAPIEKTISKAKGQPREPQVYTLPPSREEMTKNQVSLTCDVSGFYPSDIAVEWESDGQPENNYKTTPPVLDSDGSFFLYSKLTVDKSRWEQGDVFSCSVMHEALHNHYTQKSLSLSPGK heavy 2: QVQLVQSGAEVKKPGASVKVSCKASGYTFSTYWIEWVRQAPGQRLEWMGEILPGSGQTDFNEKFQGRVTFTADTSSDTAYMELSSLRSEDTAVYYCTRWGYYGTRGYFNVWGQGTLVTVSSASTKGPSVFPLAPSSKSTSGGTAALGCLVKDYFPEPVTVSWNSGALTSGVHTFPAVLQSSGLYSLSSVVTVPSSSLGTQTYICNVNHKPSNTKVDKKVEPKSCGGGGSGGGGSEVQLVESGGGLVQPGGSLRLSCAASGFTFSTYAMNWVRQAPGKGLEWVGRIRSKYNNYATYYADSVKGRFTISRDDSKNTLYLQMNSLRAEDTAVYYCVRHGNFGDSYVSWFAYWGQGTLVTVSSGKPGSGKPGSGKPGSGKPGSQAVVTQEPSLTVSPGGTVTLTCGSSTGAVTTSNYANWVQQKPGKSPRGLIGGTNKRAPGVPARFSGSLLGGKAALTISGAQPEDEADYYCALWYSNHWVFGGGTKLTVLGGGGSGGGGSKTHTCPPCPAPPVAGPSVFLFPPKPKDTLMISRTPEVTCVVVDVKHEDPEVKFNWYVDGVEVHNAKTKPCEEQYGSTYRCVSVLTVLHQDWLNGKEYKCKVSNKALPAPIEKTISKAKGQPREPQVYTLPPSREQMTKNQVKLTCLVKGFYPSDIAVEWESNGQPENNYKTTPPVLDSDGSFFLYSKLTVDKSRWQQGNVFSCSVMHEALHNHYTQKSLSLSPGK | 23.2 pM | 0.9 pM | 3.6 pM | 0.2 pM | 0.4 pM | – | 1.2 pM

From patent US20260217864A1 (JANUX THERAPEUTICS, published 2026)
